Data reported in US20230340090A1 (published 2023).

Target: T1, TDP-215 peptide GDVMDVFI (human)
T1 construct: same ELISA method as for the biotinylated 15-mers
T1 peptide: GDVMDVFI
Assay: indirect ELISA on 8-mer peptide library
Procedure: Serum-free supernatants were harvested from stable hybridomas. The supernatants containing antibodies of interest were then screened by an indirect ELISA assay to determine epitopes. Epitopes were mapped using a library of TDP-43 15-mer peptides. Briefly, 96-well streptavidin-coated 96-well ELISA plates were incubated with 5 μg/mL of biotinylated 15-mer peptides spanning the amino acids (aa) 199-285 of human TDP-43 with 9 as offset and 6 as overlap. Plates were washed thoroughly with 0.05% Tween-20/PBS and then blocked with 1% bovine serum albumin (BSA) in 0.05% Tween-20/PBS for 1 hour at 37° C. The antibody contained in the hybridoma supernatant was then added at the indicated dilutions, and incubated for 2 hours at 37° C. after which the plates were washed as described previously. An AP-conjugated anti-mouse IgG secondary antibody (Jackson ImmunoResearch Laboratories, United Kingdom) was added at 1/1000 dilution in 0.05% Tween-20/PBS for 1 hour at 37° C. After the final wash, plates were incubated with pNPP (Sigma-Aldrich, Switzerland) an AP substrate solution, and read at 405 nm using an ELISA plate reader (Tecan).
Furthermore, antibodies were tested using an indirect ELISA on a peptide library of 8-mer peptides with 7 an overlap covering the sequence of human TDP-43 from aa 210 to aa 231, using the same ELISA method as describe previously in this section.

B1: ACI-7062-415H10-Ab2 (antibody, IgG3, V domains shown)
VH: DVQLVESGGGLVQPGGSRKLSCAASGFTFSSFGMHWVRQAPEKGLEWVAYISSGSSNIYYTDTVKGRFTISRDNPKNTLFLQMTSLRSEDTAIYYCARSGTTVPFDYWGQGTTLTVSS
VL: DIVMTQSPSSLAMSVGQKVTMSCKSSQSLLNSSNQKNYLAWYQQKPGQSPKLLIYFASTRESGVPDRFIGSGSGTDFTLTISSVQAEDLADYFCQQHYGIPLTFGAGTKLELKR
notes: Mouse hybridoma antibody, IgG3, kappa; also called 415H10B7; clone 17
Does B1 bind?
Result: binds

B2: ACI-7062-404D6-Ab2 (antibody, IgG3, V domains shown)
VH: QVTLKESGPGILQPSQTLSLTCSFSGFSLSTYGIGVGWIRQPSGKGLEWLAHIWWNDYKYYNTALKSRLTISKDTSNNRVFLKIASVDTADTATYYCARVYGNLYYFDYWGQGTTLTVSS
VL: DVLMTQTPLSLPVSLGDQASISCRSSQSIVHGSGNTYLEWYLQKPGQSPKLLIYKVSNRFSGVPDRFSGSGSGTDFTLRISRVEAEDLGVYYCFQGSHVPTFGAGTKLELKR
notes: Mouse hybridoma antibody, IgG3, kappa; also called 404D6E11; clone 4
Does B2 bind?
Result: binds
